Columns and labels:
[1] = target: SID-ZFPAp3 (artificial); experiment: cell_activity; endogenous AP3, transgenic Arabidopsis ND0052-2e; 5 fold in ND0052-257; settings: tags: SID
[2] = target: T1, ZFPm2 six-finger zinc finger protein (Sp1C framework) (artificial); experiment: ELISA, 15.5 ug/ml protein; settings: tags: MBP fusion (pMAL-C2), E. coli; label: 5'-biotin (ELISA); 32P (gel shift); hairpin
Protocol: (§1) Coat ELISA plates (Costar 3690) with streptavidin. Use 25 ul/well of 8 ug/ml streptavidin in PBS. Incubate at 37° C. for 1 hr. Wash 2× with dH2O. Bind wells with 25 ul/well of 4 ng/ul biotinylated target oligonucleotide in PBS. Incubate at 37° C. for 1 hr. Wash 2× with dH2O. Block with 175 ul/well of 3% BSA in Zn Buffer A. Incubate at 37° C. for 1 hr. Tap plates dry. Perform 1:2 serial dilutions of extract in Binding Buffer (1%BSA, 5 mM DTT, .12 ug/ul Salmon Sperm DNA in ZnBA). Usually from 1:4 to 1:512 for multi-target ELISA or 1:4 to 1:32 for screening clones for specific DNA binding activity. Incubate 1 hr at room temperature. Wash 8× with dH2O. Add primary antibody: 25 ul/well of 1:1000 dilution of mouse anti-MBP (Sigma M-6295) in 1%BSA ZnBA (no DTT). Incubate 30 min at room temperature. Wash 8× with dH2O. Add secondary antibody: 25 ul/well of 1:1000 dilution of goat anti-mouse/Alkaline Phosphatase (Pierce 31324) in 1%BSA ZnBA (no DTT). Incubate 30 min at room temperature. Wash 8× with dH2O. […] Read A405 with a plate reader.
(§2) To evaluate the specificity of new zinc finger protein, the affinity of each protein was determined for binding to the target sequence and several non-target sequences at appropriate protein concentration. […] The affinity reading for target oligo was further normalized to the no oligo control which has the least affinity.

[3] = target: T2, ZFPm3 six-finger zinc finger protein (Sp1C framework) (artificial); experiment: ELISA, 1.9 ug/ml protein, non-target; settings: tags: MBP fusion (pMAL-C2), E. coli, hairpin
T2 sequence (chain, as listed by the source): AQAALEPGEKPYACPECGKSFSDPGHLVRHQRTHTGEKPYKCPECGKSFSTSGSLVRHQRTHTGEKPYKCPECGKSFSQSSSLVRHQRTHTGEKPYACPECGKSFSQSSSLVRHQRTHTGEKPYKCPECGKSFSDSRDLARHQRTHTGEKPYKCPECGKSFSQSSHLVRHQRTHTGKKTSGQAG
Protocol: (§3) Coat ELISA plates (Costar 3690) with streptavidin. Use 25 ul/well of 8 ug/ml streptavidin in PBS. Incubate at 37° C. for 1 hr. Wash 2× with dH2O. Bind wells with 25 ul/well of 4 ng/ul biotinylated target oligonucleotide in PBS. Incubate at 37° C. for 1 hr. Wash 2× with dH2O. Block with 175 ul/well of 3% BSA in Zn Buffer A. Incubate at 37° C. for 1 hr. Tap plates dry. Perform 1:2 serial dilutions of extract in Binding Buffer (1%BSA, 5 mM DTT, .12 ug/ul Salmon Sperm DNA in ZnBA). Usually from 1:4 to 1:512 for multi-target ELISA or 1:4 to 1:32 for screening clones for specific DNA binding activity. Incubate 1 hr at room temperature. Wash 8× with dH2O. Add primary antibody: 25 ul/well of 1:1000 dilution of mouse anti-MBP (Sigma M-6295) in 1%BSA ZnBA (no DTT). Incubate 30 min at room temperature. Wash 8× with dH2O. Add secondary antibody: 25 ul/well of 1:1000 dilution of goat anti-mouse/Alkaline Phosphatase (Pierce 31324) in 1%BSA ZnBA (no DTT). Incubate 30 min at room temperature. Wash 8× with dH2O. Develop with 25 ul developer (1 tablet of Sigma 104 Phosphatase Substrate (Sigma 104-105)/5 ml AP Developing Buffer [100 ml diethanolamine+0.05 g MgCl2+97.5 Sodium Azide, adjust to 500 ml with ddH2O, pH 9.88]). Incubate at room temperature for 5-60 min until color reaction is yellow. Read A405 with a plate reader.
(§4) To evaluate the specificity of new zinc finger protein, the affinity of each protein was determined for binding to the target sequence and several non-target sequences at appropriate protein concentration. For example, to protein ZFPm1 and ZFPm2, the non-target oligoes are: Oligo m34 (SEQ ID NO:20), Oligo Ap3 (SEQ ID NO:21), NRI-1 (SEQ ID NO:22), NRI-2 (SEQ ID NO:23), hHD-I (SEQ ID NO:24), hHD-II (SEQ ID NO:25), c5cl-g (SEQ ID NO:26), c5p3-g (SEQ ID NO:27), B3c2 (SEQ ID NO:28), and e2c-g (SEQ ID NO:29). Similarly, to protein ZFPm3 and ZFPm4, the non-target oligoes are Oligo m12 (SEQ ID NO:19), oligo Ap3 (SEQ ID NO:21), and the eight other oligoes. To protein ZFPAp3, the non-target oligoes are Oligo m12, oligo m34 (SEQ ID NO:20), and the eight other oligoes. The affinity reading for target oligo was further normalized to the no oligo control which has the least affinity.

[4] = target: T3, ZFPm1 six-finger zinc finger protein (Sp1C framework) (artificial); experiment: EMSA; Zn Buffer A, 10% glycerol, 0.8% BSA, salmon sperm DNA, room temp; settings: tags: MBP fusion (pMAL-C2), E. coli; label: 5'-biotin (ELISA); 32P (gel shift); hairpin
T3 sequence (chain, as listed by the source): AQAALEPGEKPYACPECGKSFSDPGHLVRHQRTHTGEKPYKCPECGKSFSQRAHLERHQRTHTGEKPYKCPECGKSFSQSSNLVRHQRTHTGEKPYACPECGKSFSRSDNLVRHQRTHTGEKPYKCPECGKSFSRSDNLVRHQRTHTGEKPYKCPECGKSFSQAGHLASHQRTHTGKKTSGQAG
Protocol: (§5) The affinity of the purified six-finger proteins was measured using gel shift assay. The target oligos used in the ELISA assays were radioactively labeled using [γ32P]-ddATPk and terminal transferase. Ten serial dilutions of 1:3 with the purified protein (starting with ˜1 mg/ml) in binding buffer (1 pM labeled oligo, 10% Glycerol, 0.8% BSA, 0.1 ug/ul salmon sperm DNA in Zn Buffer A) were performed. The ZFP was allowed to bind at room temperature for 1 hr. The samples were then run on 5-6% non-denaturing PAGE gel in TBE. The gel was dried and exposed with Phosphoimager. The affinity (Kd) of the ZFP was calculated from this gel. The Kd value is the concentration of the protein at which half of the labeled oligo is shifted to a higher molecular weight on the gel by binding to the ZFP. […] Most of these affinities compare favorably with the existed 6 finger proteins.

[5] = target: T1, ZFPm2 six-finger zinc finger protein …; experiment: as above; settings: tags: MBP fusion (pMAL-C2), E. coli; label: 5'-biotin (ELISA); 32P (gel shift); hairpin
Protocol: as §5

[6] = target: T3, ZFPm1 six-finger zinc finger protein …; experiment: ELISA, 31.0 ug/ml protein; settings: tags: MBP fusion (pMAL-C2), E. coli; label: 5'-biotin (ELISA); 32P (gel shift); hairpin
Protocol: as §1, §2

[7] = target: T4, ZFPm4 six-finger zinc finger protein (Sp1C framework) (artificial); experiment: ELISA, 15.5 ug/ml protein, non-target; settings: tags: MBP fusion (pMAL-C2), E. coli, hairpin
Protocol: as §3, §4

[8] = target: T5, ZFPAp3 six-finger zinc finger protein (Sp1C framework) (artificial); experiment: ELISA, 31.0 ug/ml protein, non-target; settings: tags: MBP fusion (pMAL-C2), E. coli, hairpin
T5 sequence (chain, as listed by the source): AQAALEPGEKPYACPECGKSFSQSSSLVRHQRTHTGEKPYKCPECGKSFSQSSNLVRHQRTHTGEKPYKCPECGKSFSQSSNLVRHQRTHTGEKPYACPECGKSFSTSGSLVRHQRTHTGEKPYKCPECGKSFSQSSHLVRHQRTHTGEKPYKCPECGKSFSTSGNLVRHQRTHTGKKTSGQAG
Protocol: as §3, §4

[9] = target: T1, ZFPm2 six-finger zinc finger protein …; experiment: ELISA, 15.5 ug/ml protein, non-target; settings: tags: MBP fusion (pMAL-C2), E. coli, hairpin
Protocol: as §3, §4

[10] = target: T3, ZFPm1 six-finger zinc finger protein …; experiment: ELISA, 31.0 ug/ml protein, non-target; settings: tags: MBP fusion (pMAL-C2), E. coli, hairpin
Protocol: as §3, §4

[11] = target: T5, ZFPAp3 six-finger zinc finger protein …; experiment: EMSA; Zn Buffer A, 10% glycerol, 0.8% BSA, salmon sperm DNA, room temp; settings: tags: MBP fusion (pMAL-C2), E. coli; label: 5'-biotin (ELISA); 32P (gel shift); hairpin
Protocol: as §5

[12] = target: T5, ZFPAp3 six-finger zinc finger protein …; experiment: ELISA, 31.0 ug/ml protein; settings: tags: MBP fusion (pMAL-C2), E. coli; label: 5'-biotin (ELISA); 32P (gel shift); hairpin
Protocol: as §1, §2

[13] = target: ZFPm4-VP64 (artificial); experiment: cell_activity; endogenous MIPS in maize HE89 protoplasts; settings: tags: VP64
Excerpt: A maize type II cell line HE89 was used to evaluate the ZFPmips-effector fusion constructs function (FIG. 22). Protoplasts from HE89 suspension cells were isolated and transformed using standard procedures (Chourey and Zurawski, 1981). The activation constructs pND3015, pND3023, pND3024, and pND3016 were transformed into freshly prepared protoplasts. The transcription level of MIPS gene was detected through quantitative PCR. With pND3016 (ZFPm4-VP64 activation constructs), at least 2-fold of activation is detected (FIG. 23). We also measured phytic acid concentration in maize tissues that were transformed by the activation construct of pND3016.

[14] = target: T4, ZFPm4 six-finger zinc finger protein …; experiment: ELISA, 15.5 ug/ml protein; settings: tags: MBP fusion (pMAL-C2), E. coli; label: 5'-biotin (ELISA); 32P (gel shift); hairpin
Protocol: as §1, §2

[15] = target: T2, ZFPm3 six-finger zinc finger protein …; experiment: EMSA; Zn Buffer A, 10% glycerol, 0.8% BSA, salmon sperm DNA, room temp; settings: tags: MBP fusion (pMAL-C2), E. coli; label: 5'-biotin (ELISA); 32P (gel shift); hairpin
Protocol: as §5

[16] = target: T4, ZFPm4 six-finger zinc finger protein …; experiment: as above; settings: tags: MBP fusion (pMAL-C2), E. coli; label: 5'-biotin (ELISA); 32P (gel shift); hairpin
Protocol: as §5

[17] = target: T2, ZFPm3 six-finger zinc finger protein …; experiment: ELISA, 1.9 ug/ml protein; settings: tags: MBP fusion (pMAL-C2), E. coli; label: 5'-biotin (ELISA); 32P (gel shift); hairpin
Protocol: as §1, §2

[18] = label: 5'-biotin (ELISA), 32P (gel shift)

T1 sequence (chain, as listed by the source): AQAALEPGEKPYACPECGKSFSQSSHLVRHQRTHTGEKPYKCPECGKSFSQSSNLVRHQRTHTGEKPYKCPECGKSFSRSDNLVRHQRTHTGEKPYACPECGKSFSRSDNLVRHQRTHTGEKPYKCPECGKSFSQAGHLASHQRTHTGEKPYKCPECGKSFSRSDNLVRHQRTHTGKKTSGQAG

| Binder | binding signal ([3]; label: 5'-biotin) | binding signal ([9]; label: 5'-biotin) | binding signal ([7]; label: 5'-biotin) | binding signal ([10]; label: 5'-biotin) | binding signal ([8]; label: 5'-biotin) | further results |
| --- | --- | --- | --- | --- | --- | --- |
| AP3 endogenous target site (dsDNA) DNA 1: GATGGAGTTGAAGAAGTA DNA 2: TACTTCTTCAACTCCATC | – | – | – | – | – | activity [1]: 46 fold repression |
| m12 hairpin oligo (dsDNA) DNA: GGAGCCTCCTTCCTCCTCTCACTCGGGTTTTCCCGAGTGAGAGGAGGAAGGAGGCTCC | – | – | – | – | – | binding signal [2]: 23 fold over no oligo; binding signal [3, 18]: 3 fold over no oligo; Kd [4]: 2 nM; Kd [5]: 7.5 nM; binding signal [6]: 18 fold over no oligo; binding signal [7, 18]: 4 fold over no oligo; binding signal [8, 18]: 14 fold over no oligo |
| GGCTCTGCTCATCCCACTACGGGTTTTCCCGTAGTGGGATGAGCAGAGCC (dsDNA) [c5p3-g] | 3 fold over no oligo | 3 fold over no oligo | 2 fold over no oligo | 3 fold over no oligo | 2 fold over no oligo | – |
| Ap3 hairpin oligo (dsDNA) DNA: GGTTACTTCTTCAACTCCATCGGGTTTTCCCGATGGAGTTGAAGAAGTAACC | – | – | – | – | – | binding signal [3, 18]: 7 fold over no oligo; Kd [11]: 2.3 nM; binding signal [12]: 27 fold over no oligo; binding signal [9, 18]: 3 fold over no oligo; binding signal [7, 18]: 2 fold over no oligo; binding signal [10, 18]: 4 fold over no oligo |
| m4 endogenous MIPS target site (dsDNA) DNA 1: GGTGAGGGAGCCGTAGTA DNA 2: TACTACGGCTCCCTCACC | – | – | – | – | – | activity [13]: ≥ 2 fold activation |
| GGGGCCCCGCCTCCGCCGGCGGGTTTTCCCGCCGGCGGAGGCGGGGCCCC (dsDNA) [hHD-I] | 1 fold over no oligo | 3 fold over no oligo | 2 fold over no oligo | 5 fold over no oligo | 2 fold over no oligo | – |
| GGGGCAGCCCCCACGGCGCCGGGTTTTCCCGGCGCCGTGGGGGCTGCCCC (dsDNA) [hHD-II] | 3 fold over no oligo | 2 fold over no oligo | 2 fold over no oligo | 4 fold over no oligo | 2 fold over no oligo | – |
| GGACCCACCGCGTCCCCTCCGGGTTTTCCCGGAGGGGACGCGGTGGGTCC (dsDNA) [B3c2] | 3 fold over no oligo | 4 fold over no oligo | 5 fold over no oligo | 4 fold over no oligo | 3 fold over no oligo | – |
| m34 hairpin oligo (dsDNA) DNA: GGAGCCAACTACTACGGCTCCCTCACCGGGTTTTCCCGGTGAGGGAGCCGTAGTAGTTGGCTCC | – | – | – | – | – | binding signal [14]: 16 fold over no oligo; Kd [15]: 0.18 nM; Kd [16]: 0.25 nM; binding signal [17]: 13 fold over no oligo; binding signal [9, 18]: 13 fold over no oligo; binding signal [10, 18]: 5 fold over no oligo; binding signal [8, 18]: 10 fold over no oligo |
| GGTTCTACCCCTCCCACCGCGGGTTTTCCCGCGGTGGGAGGGGTAGAACC (dsDNA) [NRI-1] | 4 fold over no oligo | 7 fold over no oligo | 5 fold over no oligo | 5 fold over no oligo | 8 fold over no oligo | – |
| GGTGCGGCGACTGCAGCAGCGGGTTTTCCCGCTGCTGCAGTCGCCGCACC (dsDNA) [NRI-2] | 6 fold over no oligo | 2 fold over no oligo | 3 fold over no oligo | 4 fold over no oligo | 4 fold over no oligo | – |
| GGGACACCCCCAACCCCGCCGGGTTTTCCCGGCGGGGTTGGGGGTGTCCC (dsDNA) [c5c1-g] | 3 fold over no oligo | 5 fold over no oligo | 3 fold over no oligo | 7 fold over no oligo | 2 fold over no oligo | – |
| GGCACTGCGGCTCCGGCCCCGGGTTTTCCCGGGGCCGGAGCCGCAGTGCC (dsDNA) [e2c-g] | 9 fold over no oligo | 2 fold over no oligo | 5 fold over no oligo | 2 fold over no oligo | 3 fold over no oligo | – |

Source: patent US20030037355, “Methods and compositions to modulate expression in plants” (published 2003)
